Laboratory results reported in patent US20120237496.

T1: Peptide-13 (not fully specified)
T1 chain: CRPPGFSPFRK

T2: Peptide-3
T2 chain: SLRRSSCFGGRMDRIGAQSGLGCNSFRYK

T3: Peptide-5 (not fully specified)
T3 chain: CDRVYIHPFHLK

T4: Peptide-6a
T4 chain: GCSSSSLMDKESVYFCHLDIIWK

T5: Peptide-6b
T5 chain: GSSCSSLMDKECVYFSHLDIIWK

T6: Peptide-8 (not fully specified)
T6 chain: CQLYENKPRRPYILK

B1: C6 (protein)
chain: YPYDVPDYAYPYDVPDYAYPYDVPDYAGSYDDGICKSSDCIKSAARLIQNMDATTEPCTDFFKYACGGWLKRNVIPETSSRYGNFDILRDELEVVLKDVLQEPKTEDIVAVQKAKALYRSCINESAIDSRGGEPLLKLLPDIYGWPVATENWEQKYGASWTAEKAIAQLNSKYGKKVLINLFVGTDDKNSVNHVIHIDQPRLGLPRGDYYECTGIYKEACTAYVDFMISVARLIRQEERLPIDENQLALEMNKVMELEKEIANATAKPEDRNDPMLLYNKMTLAQIQNNFSLEINGKPFSWLNFTNEIMSTVNISITNEEDVVVYAPEYLTKLKPILTKYSARDLQNLMSWRFIMDLVSSLSRTYKESRNAFRKALYVTTSETATWRRCANYVNGNMMNAVGRLYVEAAFAGESKHVVEDLIAQIREVFIQTLDDLTWMDAETKKRAEEKALAIKERIGYPDDIVSNDNKLNNEYLELNYKEDEYFENIIQNLKFSQSKQLKKLREKVDKDEWISGAAVVNAFYSSGRNQIVFPAGILQPPFFSAQQSNSLNYGGIGMVIGHEITHGFMDNVRNFNKDVDLVDWWTQQSASNFKEQSQCMVYQYGNFSWDLAGGQHLNGINTLGENIADNGGLGQAYRAYQNYIKKNGEEKLLPGLDLNHKQLFFLNFAQVWCGTYRPEYAVNSIKTDVHSPKNFRIIGTLQNSAEFSEAFHCRKNSYMNPEKKCRVW
B2: C7 (protein)
chain: YPYDVPDYAYPYDVPDYAYPYDVPDYAGSYDDGICKSSDCIKSAARLIQNMDATTEPCTDFFKYACGGWLKRNVIPETSSRYGNFDILRDELEVVLKDVLQEPKTEDIVAVQKAKALYRSCINESAIDSRGGEPLLKLLPDIYGWPVATENWEQKYGASWTAEKAIAQLNSKYGKKVLINLFVGTDDKNSVNHVIHIDQPRLGLPRGDYYECTGIYKEACTAYVDFMISVARLIRQEERLPIDENQLALEMNKVMELEKEIANATAKPEDRNDPMLLYNKMTLAQIQNNFSLEINGKPFSWLNFTNEIMSTVNISITNEEDVVVYAPEYLTKLKPILTKYSARDLQNLMSWRFIMDLVSSLSRTYKESRNAFRKALYVTTSETATWRRCANYVNGNMENAVGRLYVEAAFAGESKHVVEDLIAQIREVFIQTLDDLTWMDAETKKRAEEKALAIKERIGYPDDIVSNDNKLNNEYLELNYKEDEYFENIIQNLKFSQSKQLKKLREKVDKDEWISGAAVVNAFYSSGRNQIVFPAGILQPPFFSAQQSNSLNYGGIGMVIGHEITHGFFDNVRNFNKDLDLVDWWTQQSASNFKEQSQCMVYQYGNFSWDLAGGQHLNGINTLGENIADNGGLGQAYRAYQNYIKKNGEEKLLPGLDLNHKQLFFLNFAQVWCGTYRPEYAVNSIKTDVHSPKNFRIIGTLQNSAEFSEAFHCRKNSYMNPEKKCRVW
B3: C9 (protein)
chain: YPYDVPDYAYPYDVPDYAYPYDVPDYAGSYDDGICKSSDCIKSAARLIQNMDATTEPCTDFFKYACGGWLKRNVIPETSSRYGNFDILRDELEVVLKDVLQEPKTEDIVAVQKAKALYRSCINESAIDSRGGEPLLKLLPDIYGWPVATENWEQKYGASWTAEKAIAQLNSKYGKKVLINLFVGTDDKNSVNHVIHIDQPRLGLPRGDYYECTGIYKEACTAYVDFMISVARLIRQEERLPIDENQLALEMNKVMELEKEIANATAKPEDRNDPMLLYNKMTLAQIQNNFSLEINGKPFSWLNFTNEIMSTVNISITNEEDVVVYAPEYLTKLKPILTKYSARDLQNLMSWRFIMDLVSSLSRTYKESRNAFRKALYVTTSETATWRRCANYVNGNMENAVGRLYVEAAFAGESKHVVEDLIAQIREVFIQTLDDLTWMDAETKKRAEEKALAIKERIGYPDDIVSNDNKLNNEYLELNYKEDEYFENIIQNLKFSQSKQLKKLREKVDKDEWISGAAVVNAFYSSGRNQIVFPAGILQPPFFSAQQSNSLNYGGIGMVIGHEITHGFMDNVRNFNKDLDLVDWWTQQSASNFKEQSQCMVYQYGNFSWDLAGGQHLNGINTLGENIADNGGLGQAYRAYQNYIKKNGEEKLLPGLDLNHKQLFFLNFAQVWCGTYRPEYAVNSIKTDVHSPKNFRIIGTLQNSAEFSEAFHCRKNSYMNPEKKCRVW
B4: C8 (protein)
chain: YPYDVPDYAYPYDVPDYAYPYDVPDYAGSYDDGICKSSDCIKSAARLIQNMDATTEPCTDFFKYACGGWLKRNVIPETSSRYGNFDILRDELEVVLKDVLQEPKTEDIVAVQKAKALYRSCINESAIDSRGGEPLLKLLPDIYGWPVATENWEQKYGASWTAEKAIAQLNSKYGKKVLINLFVGTDDKNSVNHVIHIDQPRLGLPRGDYYECTGIYKEACTAYVDFMISVARLIRQEERLPIDENQLALEMNKVMELEKEIANATAKPEDRNDPMLLYNKMTLAQIQNNFSLEINGKPFSWLNFTNEIMSTVNISITNEEDVVVYAPEYLTKLKPILTKYSARDLQNLMSWRFIMDLVSSLSRTYKESRNAFRKALYVTTSETATWRRCANYVNGNMENAVGRLYVEAAFAGESKHVVEDLIAQIREVFIQTLDDLTWMDAETKKRAEEKALAIKERIGYPDDIVSNDNKLNNEYLELNYKEDEYFENIIQNLKFSQSKQLKKLREKVDKDEWISGAAVVNAFYSSGRNQIVFPAGILQPPFFSAQQSNSLNYGGIGMVIGHEITHGFFDNGRNFNKDWDLVDWWTQQSASNFKEQSQCMVYQYGNFSWDLAGGQHLNGINTLGENIADNGGLGQAYRAYQNYIKKNGEEKLLPGLDLNHKQLFFLNFAQVWCGTYRPEYAVNSIKTDVHSPKNFRIIGTLQNSAEFSEAFHCRKNSYMNPEKKCRVW

Columns and labels:
Peptide-13 = target: T1, Peptide-13
Peptide-3 = target: T2, Peptide-3
Peptide-5 = target: T3, Peptide-5
Peptide-6a = target: T4, Peptide-6a
Peptide-6b = target: T5, Peptide-6b
Peptide-8 = target: T6, Peptide-8

Protein | kapp ratio vs G399V/G714K (B1) (Peptide-1) | kapp ratio vs G399V/G714K (B1) (Peptide-13) | kapp ratio vs G399V/G714K (B1) (Peptide-2) | kapp ratio vs G399V/G714K (B1) (Peptide-3) | kapp ratio vs G399V/G714K (B1) (Peptide-4) | kapp ratio vs G399V/G714K (B1) (Peptide-5) | kapp ratio vs G399V/G714K (B1) (Peptide-6a) | kapp ratio vs G399V/G714K (B1) (Peptide-6b) | kapp ratio vs G399V/G714K (B1) (Peptide-7) | kapp ratio vs G399V/G714K (B1) (Peptide-8)
B1 | 2.35 fold | 0.85 fold | 2.36 fold | 0.24 fold | 1.26 fold | 0.29 fold | 0.28 fold | 0.19 fold | 0.61 fold | 0.37 fold
B2 | 2.77 fold | 0.43 fold | 2.83 fold | 0.24 fold | 0.96 fold | 0.34 fold | 0.42 fold | 0.28 fold | 0.47 fold | 0.46 fold
B3 | 2.33 fold | 0.52 fold | 2.44 fold | 0.24 fold | 0.67 fold | 0.22 fold | 0.31 fold | 0.21 fold | 0.52 fold | 0.46 fold
B4 | 1.86 fold | 0.43 fold | 1.64 fold | 0.24 fold | 1.17 fold | 0.27 fold | 0.32 fold | 0.24 fold | 0.69 fold | 0.36 fold
